Experimental data as given in the supplement of paper PMC9170038.

Tested on: MS2 coat protein
Experiment: apparent KD of MS2 coat protein; designed switch direction (-1 OFF switch, 1 ON switch): 1; higher = weaker reporter binding
Outline: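 Apparent KD, taken as the median over clusters for each design, was obtained by curve-fitting normalised cluster fluorescence. Designed RNA switches had been transcribed on Illumina chips by stalled E. coli RNA polymerase and titrated with SNAP-549-labelled MS2 coat protein, doubling from 0.7 or 1.5 nM to 3 µM.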

[1] = input ligand: microRNA oligo, concentration not stated
[2] = Eterna round: R95, input ligand: FMN 200 uM
[3] = Eterna round: R95, input ligand: microRNA oligo, concentration not stated
[4] = Eterna round: R95, input ligand: none

Sequence	apparent KD of MS2 coat protein (input ligand: FMN 200 uM) [nM]	apparent KD of MS2 coat protein [1] [nM]	apparent KD of MS2 coat protein (input ligand: none) [nM]	apparent KD of MS2 coat protein [2] [nM]	apparent KD of MS2 coat protein [3] [nM]	apparent KD of MS2 coat protein [4] [nM]
GGAAAGAGGUCAGGAUAUGAAUGGUUGGGACAUGAGGAUCACCCAUGUAAUAGAAGAAAUCUACAUUAGAAGGGACAAGGAAGG [AK SSNG2-V2-5.1] (Eterna round: R96, puzzle: Same State NG 2)	129	116	212	–	–	–
GGAAAGAGGUUAGGAUAUGCAUGGCUGGGACAUGAGGAUCACCCAUGUAAUAGAAGAAAUCUAGGGUAGAAGGGACAAGGAAGG [ssng2 v2 a] (Eterna round: R96, puzzle: Same State NG 2)	507	278	644	–	–	–
GGAAUAUUUACAGGAUAUGAGUUGUAAAGUCGAUCAGAAGGGUAGGUGUCUUACACGGUGUGUUACAUGAGGAUCACCCAUGUU [SameState NG1 #20] (Eterna round: R96, puzzle: Same State NG 1)	136	147	215	–	–	–
GGACGUCGAUAAUAUAACUUCACAUGAGGAUCACCCAUGUCACAGGAUAUGGAUCCUAAUUGGAUCCAGAAGGGUGCGACGUCC [Fiskers NG3ss - 36] (Eterna round: R96, puzzle: Same State NG 3)	20.7	61.8	88.8	–	–	–
GGACGUCGAUUUCCUACUUAAACAUGAGGAUCACCCAUGUCACAGGAUAUGAGUCCGAUUAGGACUCAGAAGGGUGCGACGUCC [Fiskers NG3ss - 52] (Eterna round: R96, puzzle: Same State NG 3)	22.7	11.1	18.8	–	–	–
GGAGAGAGAGCACAGGAUAUUAGAGGAGAGACAUGAGGAUCACCCAUGUAAGAGAGAGAGGAGAGUGAGAAGGGUGAGAGAGAGG [Altered State 2-19 - Jieux - Same State 2] (puzzle: Same State 2)	–	–	–	241	82.9	213
GGAGAGAGAGCGCAGGAUAUUCAAGGAGAGACAUGAGGAUCACCCAUGUAAGAGAGAGAGGAGAGGGAGAAGGGUGAGAGAGAGG [Altered State 2-12 - Jieux - Same State 2] (puzzle: Same State 2)	–	–	–	28.5	27.8	22
GGAGAGAGAGCGGAGGAUAUUCAAGGAGAGACAUGAGGAUCACCCAUGUAAGAGAGAGAGGAGAGGGAGAAGGCUGAGAGAGAGG [Altered State 2-11 - Jieux - Same State 2] (puzzle: Same State 2)	–	–	–	25.1	25.9	27.2
GGAGCCGGCACCGAGGAUAUUCGUAUUAAAACAUGAGGAUCACCCAUGUAGGCCAGAAGGCCUUGGGAGAAGGCGGAUCGGCUCG [Xeonanis - 2] (puzzle: Same State 2)	–	–	–	12.4	65.2	106
GGAGCCGGCACUGAGGAUAUUCAUAAUAAAACAUGAGGAUCACCCAUGUAGGCCAGAAGGCCUUGGGAGAAGGCAGGUCGGCUCG [Mat - Same State 2 - Mod of UCT - D65] (puzzle: Same State 2)	–	–	–	16.7	138	185
GGAGCCGGCACUGAGGAUAUUCAUAUUAAAACAUGAGGAUCACCCAUGUAGGCCAGAAGGCCUUGGGAGAAGGCGGAUCGGCUCG [Xeonanis - 14] (puzzle: Same State 2)	–	–	–	78.7	181	1070
GGAGCCGGCACUGAGGAUAUUCAUUUUAAAACAUGAGGAUCACCCAUGUAGGCCAGAAGGCCUUGGGAGAAGGCAGGUCGGCCCG [Bibimoar - 6] (puzzle: Same State 2)	–	–	–	18.4	190	271
GGAGCCGGCCUAGGAUAUUUCAUAAAAAAACAUGAGGAUCACCCAUGUAGGCCAGAAGGCCUUGGGAAGAAGGAGGUCGGCUCC [Loop Effect - Control] (Eterna round: R96, puzzle: Same State NG 2)	8.94	11.9	21.3	–	–	–
GGAGCCGGCCUAGGAUAUUUCAUAAAAAGACAUGAGGAUCACCCAUGUAGGCCAGAAGGCCUUGGGAAGAAGGAGGUCGGCUCC [Loop Effect - G29] (Eterna round: R96, puzzle: Same State NG 2)	20.8	22.7	32.9	–	–	–
GGAGCCGGCCUAGGAUAUUUCAUAUAAAAACAUGAGGAUCACCCAUGUAGGCCAGAAGGCCUUGGGAAGAAGGAGGUCGGCUCC [Loop Effect - U25] (Eterna round: R96, puzzle: Same State NG 2)	12.4	27.2	30.1	–	–	–
GGAGCCGGCCUAGGAUAUUUCAUAUAAUAACAUGAGGAUCACCCAUGUAGGCCAGAAGGCCUUGGGAAGAAGGAGGUCGGCUCC [Loop Effect - U25,U28] (Eterna round: R96, puzzle: Same State NG 2)	13.1	39.1	50.8	–	–	–

Sequence	apparent KD of MS2 coat protein (input ligand: FMN 200 uM) [nM]	apparent KD of MS2 coat protein [1] [nM]	apparent KD of MS2 coat protein (input ligand: none) [nM]	apparent KD of MS2 coat protein [2] [nM]	apparent KD of MS2 coat protein [3] [nM]	apparent KD of MS2 coat protein [4] [nM]
GGAGCCGGCCUAGGAUAUUUCAUAUUAAAACAUGAGGAUCACCCAUGUAGGCCAGAAGGCCUUGGGAAGAAGGAGGUCGGCUCC [Loop Effect - U25,U26] (Eterna round: R96, puzzle: Same State NG 2)	15.2	50.7	87.8	–	–	–
GGAGCCGGCCUAGGAUAUUUCAUAUUUAAACAUGAGGAUCACCCAUGUAGGCCAGAAGGCCUUGGGAAGAAGGAGGUCGGCUCC [Loop Effect - U25,U26,U27] (Eterna round: R96, puzzle: Same State NG 2)	–	57.4	–	–	–	–
GGAGCCGGUACUGAGGAUAUUCGUAUUAAAACAUGAGGAUCACCCAUGUAGGCCAGAAGGCCUUGGGAGAAGGCAGAUCGGCUCC [Biseusra - 1] (puzzle: Same State 2)	–	–	–	13.2	36	48.3
GGAGGACAUGAGGAUCACCCAUGUGGAUGGGCGCUAGGAUAUGCGUGCGGGAAGAGUGGAGCAGAAGGAGUGGGUU [JR_SS1_Sub045] (Eterna round: R96, puzzle: Same State 1)	66.8	41.9	55.6	–	–	–
GGAGGACAUGAGGAUCACCCAUGUGGAUGGGCGCUAGGAUAUGCGUGCGGGAAGAGUGGAGCAGAAGGAGUGGGUU [JR_SS1_Sub045] (puzzle: Same State 1)	–	–	–	–	37.4	–
GGAUCCGGCACUGAGGAUAUUCAUAUUUAAACAUGAGGAUCACCCAUGUAGGCCAGAAGGCCUUGGGAGAAGGCAGGUCGGCUCG [salish99_ss2_r3_082] (puzzle: Same State 2)	–	–	–	27.6	268	484
GGAUGAUAGACAGGAUAUUGAUUGUAAUUUUGUCAAGAAGGGUCUUUGAUUUAAACGACCAGUUACAUGAGGAUCACCCAUGUU [JR_SSNG1_Sub030] (Eterna round: R96, puzzle: Same State NG 1)	20.1	27.6	30.3	–	–	–
GGAUUGGAGGCAGGAUAUGGGCUCAGAACAUGAGGAUCACCCAUGUAAAACGGCGCGAUGCGCCACCAGAAGGGCCUCCGAUCG [Tiaonbira] (Eterna round: R96, puzzle: Same State NG 2)	12.8	23.8	37.3	–	–	–
GGCAGACAUGAGGAUCACCCAUGUCGGCCGUUAGGAGGAUAUCGGUGAUAUCUGUCUCGCCGAGAAGGUUUAAUUA [Onaterleza] (puzzle: Same State 1)	–	–	–	–	9.71	–
GGCAGGUGCAGGCUUGCUUGCACCUGGAAACAUGAGGAUCACCCAUGUUUGGGACAAGCUUUGCUCCUCGUUUUGUC [JL ViennaUCT Isusreraar mod 3] (puzzle: Sensor for hsa-mir-208a)	–	–	–	209	133	288
GGCGAACAGGCUAACAUGAGGAUCACCCAUGUGGACUCAUGGUAGGAUAUCGGGAAGGAGGAAACCGAGAAGGGCCGGUGAGCC [AK SSNG3-V2-48] (Eterna round: R96, puzzle: Same State NG 3)	14.3	20	716	–	–	–
GGGAGACAUGAGGAUCACCCAUGUGGGAGGGAACGAGGAUAUGUAAGGAGAGAGAAUAGAACAGAAGGCGUAGGUG [JR_SS1_Sub022] (puzzle: Same State 1)	–	–	–	50	50	61.9
GGGCCAGCUUGUGCUGGGCCUUCGCAUGCACAUGAGGAUCACCCAUGUCGUGUACAUGCUUUUUGCUCGUCUUUAAA [Photon Torp-11] (puzzle: Sensor for hsa-mir-208a)	–	–	–	39.6	14	40.8
GGGCCAGCUUGUGCUGGGCCUUCGCUUGCACAUGAGGAUCACCCAUGUCGUGUACAUGCUUGGUGCCCGUCUUUCCC [Photon Torp-15] (puzzle: Sensor for hsa-mir-208a)	–	–	–	182	49.2	201
GGUAAGAACUAAGGAUAUUGAAUACAUAUGUUUAACAUGAGGAUCACCCAUGUGGGUUGCGGUGUCGAGAAGGUAGAAUAAUAG [Mat - same State NG 2 - JL mod - D102] (Eterna round: R96, puzzle: Same State NG 2)	204	166	193	–	–	–
